Here are results for one molecule from paper doi:10.1101/2021.04.12.439405 (bioRxiv, 2021).

This assay deals with T1, MukB^K1114E (E. coli, UniProt P22523 1-1486, K1114E).
T1 sequence (looked up): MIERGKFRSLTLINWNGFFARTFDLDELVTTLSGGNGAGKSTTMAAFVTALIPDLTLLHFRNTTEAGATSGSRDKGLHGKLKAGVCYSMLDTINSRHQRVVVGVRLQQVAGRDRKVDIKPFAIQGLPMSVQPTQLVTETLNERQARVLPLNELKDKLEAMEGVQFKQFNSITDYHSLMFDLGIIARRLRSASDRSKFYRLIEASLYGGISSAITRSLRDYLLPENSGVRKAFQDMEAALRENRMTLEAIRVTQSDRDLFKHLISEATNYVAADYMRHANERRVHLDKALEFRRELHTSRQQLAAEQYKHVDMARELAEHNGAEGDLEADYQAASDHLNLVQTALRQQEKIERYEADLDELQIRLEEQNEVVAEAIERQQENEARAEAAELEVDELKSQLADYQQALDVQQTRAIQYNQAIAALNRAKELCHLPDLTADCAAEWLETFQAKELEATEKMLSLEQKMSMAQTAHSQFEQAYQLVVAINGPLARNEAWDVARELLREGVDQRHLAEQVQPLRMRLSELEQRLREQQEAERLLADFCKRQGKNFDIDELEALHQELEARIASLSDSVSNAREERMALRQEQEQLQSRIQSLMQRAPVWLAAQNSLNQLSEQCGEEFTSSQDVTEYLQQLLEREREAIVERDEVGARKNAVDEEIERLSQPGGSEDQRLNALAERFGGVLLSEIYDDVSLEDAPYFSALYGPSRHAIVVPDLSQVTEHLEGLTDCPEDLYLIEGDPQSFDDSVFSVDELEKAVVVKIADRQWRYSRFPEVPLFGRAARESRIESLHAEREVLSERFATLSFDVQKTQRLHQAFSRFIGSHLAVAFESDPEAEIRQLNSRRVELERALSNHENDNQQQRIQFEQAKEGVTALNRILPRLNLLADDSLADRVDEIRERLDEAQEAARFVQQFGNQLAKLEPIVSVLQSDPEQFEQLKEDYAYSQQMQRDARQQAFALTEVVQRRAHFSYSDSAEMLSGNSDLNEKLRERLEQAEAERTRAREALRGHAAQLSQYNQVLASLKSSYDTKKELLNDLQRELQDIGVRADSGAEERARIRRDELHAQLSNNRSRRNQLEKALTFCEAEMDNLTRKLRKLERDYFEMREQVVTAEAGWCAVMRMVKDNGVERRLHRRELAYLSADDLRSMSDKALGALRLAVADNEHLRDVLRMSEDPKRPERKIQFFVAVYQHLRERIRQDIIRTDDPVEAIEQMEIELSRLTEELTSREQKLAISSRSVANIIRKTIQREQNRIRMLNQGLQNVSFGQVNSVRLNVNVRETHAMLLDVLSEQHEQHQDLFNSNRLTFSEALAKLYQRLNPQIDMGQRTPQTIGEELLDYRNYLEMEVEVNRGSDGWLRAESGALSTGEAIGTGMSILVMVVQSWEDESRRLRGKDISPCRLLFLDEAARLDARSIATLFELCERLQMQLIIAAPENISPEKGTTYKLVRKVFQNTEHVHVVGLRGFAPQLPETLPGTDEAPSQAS
The experiment in a line: native gel or EMSA.

B1: His-MukF (natural protein, E. coli, UniProt P60293 1-440, looked up)
chain: MSEFSQTVPELVAWARKNDFSISLPVDRLSFLLAVATLNGERLDGEMSEGELVDAFRHVSDAFEQTSETIGVRANNAINDMVRQRLLNRFTSEQAEGNAIYRLTPLGIGITDYYIRQREFSTLRLSMQLSIVAGELKRAADAAEEGGDEFHWHRNVYAPLKYSVAEIFDSIDLTQRLMDEQQQQVKDDIAQLLNKDWRAAISSCELLLSETSGTLRELQDTLEAAGDKLQANLLRIQDATMTHDDLHFVDRLVFDLQSKLDRIISWGQQSIDLWIGYDRHVHKFIRTAIDMDKNRVFAQRLRQSVQTYFDEPWALTYANADRLLDMRDEEMALRDEEVTGELPEDLEYEEFNEIREQLAAIIEEQLAVYKTRQVPLDLGLVVREYLSQYPRARHFDVARIVIDQAVRLGVAQADFTGLPAKWQPINDYGAKVQAHVIDKY
Consider B1, for which the binding result was “binds”.
